Source: patent US20160200782A1 (MOERAE MATRIX, published 2016)

T1: MST2(h) (human, UniProt Q13188 1-491, limits assumed)
T1 sequence (looked up): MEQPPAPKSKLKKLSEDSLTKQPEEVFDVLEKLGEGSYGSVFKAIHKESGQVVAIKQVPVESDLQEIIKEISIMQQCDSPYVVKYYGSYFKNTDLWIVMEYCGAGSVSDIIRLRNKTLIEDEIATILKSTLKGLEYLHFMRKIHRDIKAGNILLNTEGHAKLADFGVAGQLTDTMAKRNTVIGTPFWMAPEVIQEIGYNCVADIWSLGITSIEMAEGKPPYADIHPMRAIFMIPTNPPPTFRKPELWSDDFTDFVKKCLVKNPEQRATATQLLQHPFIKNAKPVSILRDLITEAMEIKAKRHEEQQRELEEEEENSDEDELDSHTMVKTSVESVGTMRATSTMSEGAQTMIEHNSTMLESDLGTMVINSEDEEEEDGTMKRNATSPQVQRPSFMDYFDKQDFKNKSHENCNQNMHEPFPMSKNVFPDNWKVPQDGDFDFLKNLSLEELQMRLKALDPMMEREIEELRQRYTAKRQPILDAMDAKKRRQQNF

T2: EphB1(h) (human, UniProt P54762 564-984, limits assumed)
T2 sequence (looked up): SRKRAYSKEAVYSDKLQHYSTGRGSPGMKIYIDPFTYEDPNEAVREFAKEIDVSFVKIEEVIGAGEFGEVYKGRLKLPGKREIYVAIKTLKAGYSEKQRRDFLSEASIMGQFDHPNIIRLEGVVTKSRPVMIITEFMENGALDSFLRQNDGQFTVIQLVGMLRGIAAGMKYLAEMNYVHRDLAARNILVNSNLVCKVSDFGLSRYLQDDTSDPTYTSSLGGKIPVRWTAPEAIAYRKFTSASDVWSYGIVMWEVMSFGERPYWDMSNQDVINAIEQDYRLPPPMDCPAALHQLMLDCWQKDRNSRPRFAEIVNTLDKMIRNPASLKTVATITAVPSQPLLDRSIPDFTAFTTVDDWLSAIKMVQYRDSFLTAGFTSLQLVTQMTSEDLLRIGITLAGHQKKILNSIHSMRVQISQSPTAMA

T3: TAO1(h) (human, UniProt Q7L7X3 1-320, limits assumed)
T3 sequence (looked up): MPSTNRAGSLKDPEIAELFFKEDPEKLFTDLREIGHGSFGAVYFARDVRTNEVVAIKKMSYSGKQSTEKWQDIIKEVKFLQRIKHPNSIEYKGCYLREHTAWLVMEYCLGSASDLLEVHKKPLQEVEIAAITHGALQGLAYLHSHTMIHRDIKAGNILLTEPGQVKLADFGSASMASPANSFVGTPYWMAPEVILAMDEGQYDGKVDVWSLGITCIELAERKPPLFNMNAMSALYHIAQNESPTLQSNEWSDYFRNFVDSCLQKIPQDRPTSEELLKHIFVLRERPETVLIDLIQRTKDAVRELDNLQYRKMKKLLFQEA

T4: Flt3(D835Y)(h) (human, UniProt P36888 564-993, limits assumed)
T4 sequence (looked up): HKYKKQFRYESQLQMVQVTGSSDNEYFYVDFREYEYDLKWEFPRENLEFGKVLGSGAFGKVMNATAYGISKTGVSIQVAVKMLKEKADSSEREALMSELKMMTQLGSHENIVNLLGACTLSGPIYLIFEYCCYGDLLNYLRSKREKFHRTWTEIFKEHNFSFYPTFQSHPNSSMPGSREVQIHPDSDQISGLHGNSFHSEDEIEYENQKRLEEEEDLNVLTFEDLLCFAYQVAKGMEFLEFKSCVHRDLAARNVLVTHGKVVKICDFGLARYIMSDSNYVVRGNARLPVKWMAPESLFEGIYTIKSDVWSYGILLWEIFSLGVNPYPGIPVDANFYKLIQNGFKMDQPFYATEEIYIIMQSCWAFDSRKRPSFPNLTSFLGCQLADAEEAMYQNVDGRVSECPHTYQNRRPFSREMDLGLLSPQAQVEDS

T5: Fms(h) (human, UniProt P07333 538-972, limits assumed)
T5 sequence (looked up): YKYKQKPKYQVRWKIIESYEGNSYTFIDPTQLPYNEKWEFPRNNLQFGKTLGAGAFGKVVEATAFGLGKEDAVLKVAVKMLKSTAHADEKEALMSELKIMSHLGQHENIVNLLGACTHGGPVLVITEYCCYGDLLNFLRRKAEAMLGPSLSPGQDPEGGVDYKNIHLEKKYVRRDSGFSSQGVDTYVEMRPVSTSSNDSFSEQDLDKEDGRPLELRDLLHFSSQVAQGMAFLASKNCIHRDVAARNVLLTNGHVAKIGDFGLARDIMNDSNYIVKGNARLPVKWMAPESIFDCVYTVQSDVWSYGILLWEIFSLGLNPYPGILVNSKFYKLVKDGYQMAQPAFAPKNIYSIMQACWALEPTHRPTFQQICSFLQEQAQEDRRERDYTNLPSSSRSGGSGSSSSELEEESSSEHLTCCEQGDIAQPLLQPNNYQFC


Columns and labels:
Assay in all cases: cell-based or functional assay
[1] = target: T1, MST2(h)
[2] = target: CHK2(I157T)(h) (human, UniProt O96017 5-543, limits assumed)
[3] = target: PDGFRα(h) (human, UniProt P16234 550-1089, limits assumed)
[4] = target: PAK2(h) (human, UniProt Q13177 1-524, limits assumed)
[5] = target: SRPK1(h) (human, UniProt Q96SB4 1-655, limits assumed)
[6] = target: MELK(h) (human, UniProt Q14680 1-340, limits assumed)
[7] = target: T2, EphB1(h)
[8] = target: T3, TAO1(h)
[9] = target: cKit(V654A)(h) (human, UniProt P10721 544-976, limits assumed)
[10] = target: T4, Flt3(D835Y)(h)
[11] = target: T5, Fms(h)
Also: test concentration or dose not given here.

PAK2(h), sequence (Q13177 whole entry): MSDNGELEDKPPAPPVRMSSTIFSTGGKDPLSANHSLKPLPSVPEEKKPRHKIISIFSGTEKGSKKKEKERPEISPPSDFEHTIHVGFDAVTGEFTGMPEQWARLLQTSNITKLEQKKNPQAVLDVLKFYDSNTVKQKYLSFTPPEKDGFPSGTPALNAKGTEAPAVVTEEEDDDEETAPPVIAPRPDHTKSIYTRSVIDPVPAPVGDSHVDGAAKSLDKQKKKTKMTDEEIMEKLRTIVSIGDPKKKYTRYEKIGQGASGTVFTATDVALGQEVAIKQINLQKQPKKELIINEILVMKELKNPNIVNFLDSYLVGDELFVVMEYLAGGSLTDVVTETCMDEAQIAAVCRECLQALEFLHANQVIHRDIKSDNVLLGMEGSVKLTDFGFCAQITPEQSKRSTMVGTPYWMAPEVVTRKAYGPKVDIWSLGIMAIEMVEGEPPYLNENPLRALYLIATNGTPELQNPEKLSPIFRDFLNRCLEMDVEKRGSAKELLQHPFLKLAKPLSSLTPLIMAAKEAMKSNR
MELK(h), sequence (Q14680 1-340 limits assumed): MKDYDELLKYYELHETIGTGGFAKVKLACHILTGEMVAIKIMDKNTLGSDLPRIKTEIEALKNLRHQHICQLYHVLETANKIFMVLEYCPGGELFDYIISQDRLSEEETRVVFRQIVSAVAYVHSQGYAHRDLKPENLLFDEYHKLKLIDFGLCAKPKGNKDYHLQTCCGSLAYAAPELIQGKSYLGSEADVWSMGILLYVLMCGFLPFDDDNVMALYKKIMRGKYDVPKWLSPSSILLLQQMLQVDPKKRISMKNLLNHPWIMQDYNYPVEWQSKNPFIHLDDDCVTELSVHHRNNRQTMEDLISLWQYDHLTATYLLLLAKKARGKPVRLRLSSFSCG
SRPK1(h), sequence (Q96SB4 whole entry): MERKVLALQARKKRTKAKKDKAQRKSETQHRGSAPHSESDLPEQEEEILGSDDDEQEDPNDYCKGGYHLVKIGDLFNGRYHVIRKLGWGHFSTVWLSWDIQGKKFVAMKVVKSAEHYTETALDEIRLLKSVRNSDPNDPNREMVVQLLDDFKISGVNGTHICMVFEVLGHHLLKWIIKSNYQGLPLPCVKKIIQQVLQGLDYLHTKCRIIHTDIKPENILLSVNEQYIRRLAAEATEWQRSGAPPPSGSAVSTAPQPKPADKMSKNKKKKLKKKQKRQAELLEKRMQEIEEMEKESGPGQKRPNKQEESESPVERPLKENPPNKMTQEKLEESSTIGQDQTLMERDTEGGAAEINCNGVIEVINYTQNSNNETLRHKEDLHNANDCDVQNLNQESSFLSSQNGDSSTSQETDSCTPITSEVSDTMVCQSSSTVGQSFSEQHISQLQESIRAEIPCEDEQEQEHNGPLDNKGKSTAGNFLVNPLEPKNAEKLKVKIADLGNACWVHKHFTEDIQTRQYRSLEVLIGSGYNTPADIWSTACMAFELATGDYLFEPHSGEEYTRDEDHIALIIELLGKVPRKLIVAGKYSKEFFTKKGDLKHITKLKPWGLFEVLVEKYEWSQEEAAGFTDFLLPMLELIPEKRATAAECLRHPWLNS
PDGFRα(h), sequence (P16234 550-1089 limits assumed): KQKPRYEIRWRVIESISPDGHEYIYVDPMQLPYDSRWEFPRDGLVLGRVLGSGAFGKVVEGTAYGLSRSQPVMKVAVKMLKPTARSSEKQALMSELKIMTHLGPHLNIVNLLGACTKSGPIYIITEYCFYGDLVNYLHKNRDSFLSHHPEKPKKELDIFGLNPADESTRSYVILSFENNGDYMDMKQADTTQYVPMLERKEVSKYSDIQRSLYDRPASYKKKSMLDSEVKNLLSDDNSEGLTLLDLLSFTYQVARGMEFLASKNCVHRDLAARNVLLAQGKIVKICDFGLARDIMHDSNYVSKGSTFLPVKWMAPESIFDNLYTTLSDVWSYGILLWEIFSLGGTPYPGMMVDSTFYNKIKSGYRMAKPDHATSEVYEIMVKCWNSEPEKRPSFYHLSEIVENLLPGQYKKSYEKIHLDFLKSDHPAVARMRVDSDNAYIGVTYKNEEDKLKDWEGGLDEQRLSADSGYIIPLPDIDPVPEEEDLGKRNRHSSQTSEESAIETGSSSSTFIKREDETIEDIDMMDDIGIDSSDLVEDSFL
CHK2(I157T)(h), sequence (O96017 5-543 I157T limits assumed): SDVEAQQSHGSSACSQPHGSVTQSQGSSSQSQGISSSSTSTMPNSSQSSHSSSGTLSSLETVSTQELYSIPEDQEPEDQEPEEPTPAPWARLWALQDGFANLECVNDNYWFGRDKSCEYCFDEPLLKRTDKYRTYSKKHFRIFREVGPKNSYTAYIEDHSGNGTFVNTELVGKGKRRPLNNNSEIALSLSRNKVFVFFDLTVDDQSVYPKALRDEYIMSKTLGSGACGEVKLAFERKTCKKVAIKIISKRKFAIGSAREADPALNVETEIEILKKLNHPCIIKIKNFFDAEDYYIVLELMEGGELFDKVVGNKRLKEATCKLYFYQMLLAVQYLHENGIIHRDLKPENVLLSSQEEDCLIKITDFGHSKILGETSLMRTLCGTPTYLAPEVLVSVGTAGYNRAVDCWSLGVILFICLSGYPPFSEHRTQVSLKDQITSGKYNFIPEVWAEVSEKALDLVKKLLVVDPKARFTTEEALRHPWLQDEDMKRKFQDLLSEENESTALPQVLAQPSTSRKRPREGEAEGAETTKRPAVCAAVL
cKit(V654A)(h), sequence (P10721 544-976 V654A limits assumed): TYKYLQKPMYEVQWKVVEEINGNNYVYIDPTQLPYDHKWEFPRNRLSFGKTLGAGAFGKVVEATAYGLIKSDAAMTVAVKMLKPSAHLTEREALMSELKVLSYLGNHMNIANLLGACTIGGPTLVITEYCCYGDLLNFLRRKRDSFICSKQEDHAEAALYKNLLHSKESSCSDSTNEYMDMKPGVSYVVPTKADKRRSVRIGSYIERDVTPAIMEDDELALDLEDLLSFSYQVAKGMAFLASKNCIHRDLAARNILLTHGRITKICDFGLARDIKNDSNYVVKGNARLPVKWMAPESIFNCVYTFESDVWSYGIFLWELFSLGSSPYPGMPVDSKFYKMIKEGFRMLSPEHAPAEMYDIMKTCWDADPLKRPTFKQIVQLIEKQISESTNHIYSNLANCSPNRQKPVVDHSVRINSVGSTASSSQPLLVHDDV

| % activity [1] [%] | % activity [2] [%] | % activity [3] [%] | % activity [4] [%] | % activity [5] [%] | % activity [6] [%] | % activity [7] [%] | % activity [8] [%] | % activity [9] [%] | % activity [10] [%] | % activity [11] [%] | Binder |
| --- | --- | --- | --- | --- | --- | --- | --- | --- | --- | --- | --- |
| 19 | 43 | 65 | 65 | 90 | 16 | 44 | 82 | 134 | 80 | 45 | FAKLAARLYRKALARQLGVAA [MMI-0300] |
| 11 | 41 | 40 | 59 | 96 | 17 | 58 | 73 | 150 | 71 | 37 | KAFAKLAARLYRKALARQLGVAA [MMI-0400] |
